Test results as given in the supplement of paper PMC9170038.

Tested on: MS2 coat protein
Assay: apparent KD of MS2 coat protein; designed switch direction (-1 OFF switch, 1 ON switch): -1; higher = weaker reporter binding
Summary of the method: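 An oligonucleotide input, 200 uM small-molecule ligand, or no input was present during titration of SNAP-549-labelled MS2 coat protein, which was doubled from 0.7 or 1.5 nM to 3 µM. Designed RNA switches had been transcribed on Illumina chips by stalled E. coli RNA polymerase. Apparent KD per design is the median over clusters of curves fitted to normalised cluster fluorescence.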

[1] = Eterna round: R95, input ligand: FMN 200 uM
[2] = Eterna round: R95, input ligand: microRNA oligo, concentration not stated
[3] = Eterna round: R95, input ligand: none
[4] = input ligand: microRNA oligo, concentration not stated

UACUUCUGAGGAUAUACAUAGAUUUACAUGAGGAUCACCCAUGUUCCUCUUUGUAUAAAUGUAGAAGGCAGAAGAU [Mat - Exclusion 5 - JL Mod - D74] (Eterna round: R97, puzzle: Exclusion 5)
apparent KD of MS2 coat protein (input ligand: FMN 200 uM): 95.6 nM | apparent KD of MS2 coat protein (input ligand: none): 231 nM

GCCAGAGCAGGAUAUUGAUAAAUUCACAUGAGGAUCACCCAUGUCCAGCGAAAGCUGGAACGAGAAGGGCUCUGGC [Mat - Exclusion 5 - Eli mod - D87] (puzzle: Exclusion 5)
apparent KD of MS2 coat protein [1]: 11.7 nM | apparent KD of MS2 coat protein [2]: 13.3 nM | apparent KD of MS2 coat protein [3]: 13.7 nM

GCCGCCGCCUUGGCGGCGGACAUGAGGAUCACCCAUGUCAAGCUUUUGCUCGUCUUAUUUGGCCGGCUUGCCGGCCA [Olib_1] (Eterna round: R97, puzzle: Sensor, turn-off variant 1)
apparent KD of MS2 coat protein (input ligand: FMN 200 uM): 24.5 nM | apparent KD of MS2 coat protein (input ligand: none): 26.1 nM

UACAUGAGGAUCACCCAUGUUUUGUCGUGUAUGGUAUUUAUCUAGGAUAUCAUUUUAUUGAGUUAUGAGAAGGAGAAUAUUAAU [JMF's solution 91] (Eterna round: R96, puzzle: Exclusion NG 3)
apparent KD of MS2 coat protein (input ligand: FMN 200 uM): 39.8 nM | apparent KD of MS2 coat protein [4]: 28.5 nM | apparent KD of MS2 coat protein (input ligand: none): 32.3 nM

UGCAUGUCAGGAUAUCGUGCAUACAACGAAAGUUCUAUGUGCGAGAAGGGACAUGAGGAUCACCCAUGUCUUAG [Omei Ex4 A18] (Eterna round: R97, puzzle: Exclusion 4)
apparent KD of MS2 coat protein (input ligand: FMN 200 uM): 67.1 nM | apparent KD of MS2 coat protein (input ligand: none): 22.6 nM

UAGAUGGGAGGAUAUACGUAGAUACAGAUUCAUGUAGUGCUACAUGAGGAUCACCCAUGUAGAAGGCCCGUCUU [JL-ex2-2.19 Mayanne mod] (puzzle: Exclusion 2)
apparent KD of MS2 coat protein [2]: 35.2 nM

GACCAGGUAGGAUAUGCAGGGUAGGACUUGAGGAUCACCCAAGUGGCCAAAGUGCGUCCCGCAGAAGGGCCGAACC [Teararatbi] (Eterna round: R97, puzzle: Exclusion 5)
apparent KD of MS2 coat protein (input ligand: FMN 200 uM): 356 nM | apparent KD of MS2 coat protein (input ligand: none): 386 nM

CAUGAUCUUCGGAUCAUGUACAUGAGGAUCACCCAUGUGACGAGUAGAUCCUCAAACAAGCUUUUUGCUCGUCUUAU [Sensor v3 - Turn-off variant 1 - 19] (puzzle: Sensor v3, turn-off variant 1)
apparent KD of MS2 coat protein [1]: 50.7 nM | apparent KD of MS2 coat protein [2]: 12.1 nM | apparent KD of MS2 coat protein [3]: 64.5 nM

CAGUACUGAGGAUAUACAUGAGGAUCACCCAUGUGUUCCUGCUAGGAAACUAGCAAAAGUAGAAGGCAGUACUG [salish99_ex3_r3_098x] (puzzle: Exclusion 3)
apparent KD of MS2 coat protein [2]: 28.5 nM

UAUUACAAGCGAGAUCCUAACAUGAGGAUCACCCAUGUGCUCGUCUCAUUUUGGACUAUCACGAAAGUGAUAGUCCU [Level Boss var2-02] (puzzle: Sensor v3, turn-off variant 1)
apparent KD of MS2 coat protein [1]: 19.9 nM | apparent KD of MS2 coat protein [2]: 237 nM | apparent KD of MS2 coat protein [3]: 17.2 nM

UUAAUUAAUUUAUUAGAUCCUCACAUGAGGAUCACCCAUGUGCAGGAUAUCAGCUCGUUUAGAGCUGAGAAGGGCACUAUAAAU [ExNG3/10-B2] (Eterna round: R96, puzzle: Exclusion NG 3)
apparent KD of MS2 coat protein (input ligand: FMN 200 uM): 24.6 nM | apparent KD of MS2 coat protein [4]: 41.8 nM | apparent KD of MS2 coat protein (input ligand: none): 38.1 nM

UCAGGUCGGUAGGAUAUCGACGGGAAAAGCCCACGAGAAGGACUGACAUGAGGAUCACCCAUGUGAGCGUAACC [EX6 B.1] (Eterna round: R97, puzzle: Exclusion 6)
apparent KD of MS2 coat protein (input ligand: FMN 200 uM): 37.9 nM | apparent KD of MS2 coat protein (input ligand: none): 101 nM

AUUAAUCAGCAGGAUAUAAGUAUCUGAAGGUGGUUAGAAGGGCUGACAUGAGGAUCACCCAUGUGCUCUUCGUG [Vevetigeat] (puzzle: Exclusion 6)
apparent KD of MS2 coat protein [2]: 12.4 nM

UUAGUGUGAGGAUAUGGUAAAGAUAAGAUGAUGAAAGAACUCCAGAAGGCACAUGAGGAUCACCCAUGUAGAUU [Mat - Exclusion 4 - Mod of JL - D25] (puzzle: Exclusion 4)
apparent KD of MS2 coat protein [1]: 53.5 nM | apparent KD of MS2 coat protein [2]: 24.2 nM | apparent KD of MS2 coat protein [3]: 24.2 nM
